Tested on: IL2 signaling pathway (STAT5 phosphorylation) in mouse splenocytes
Test: Flow cytometry detection of pSTAT5 expression in T cells and NK cells after IL2 stimulation, IL2RB/IL2RG/IL15/IL15RA four-gene humanized mice
Assay type: cell-based
Settings: for pSTAT5 expression (CD4+ T cell) / pSTAT5 expression (CD8a+ cell) / pSTAT5 expression (NK1.1+ cell): splenocytes, 10 μg/mL IL2
Protocol: The IL2 and IL15 signaling pathways in IL2RB/IL2RG double-gene humanized mice were detected by flow cytometry. Specifically, three 6-week old female C57BL/6 wild-type mice (+/+), three IL2RB/IL2RG double-gene humanized heterozygous mice (H/+; H/+), and three IL2RB/IL2RG double-gene humanized homozygous mice (H/H; H/H) were selected. […] No primary antibody was added to the corresponding secondary antibody control groups.
The IL2 and IL15 signaling pathways in IL2RB/IL2RG/IL15/IL15RA four-gene humanized mice were detected by flow cytometry. […] The cells were stained with: Brilliant Violet 421™ anti-mouse NK-1.1 Antibody, APC anti-mouse CD4 Antibody, and/or Alexa Fluor 700 anti-mouse CD8a Antibody, and then subjected to flow cytometry analysis.

[1] = IL2RB/IL2RG/IL15/IL15RA four-gene humanized homozygous mice (H/H)

B1: mIL2: Biotinylated Mouse IL-2 Protein, purchased from Kactus Biosystems (protein, UniProt P04351 21-169, looked up)
Interleukin-2: APTSSSTSSSTAEAQQQQQQQQQQQQHLEQLLMDLQELLSRMENYRNLKLPRMLTFKFYLPKQATELKDLQCLEDELGPLRHVLDLTQSKSFQLEDAENFISNIRVTVVKLKGSDNTFECQFDDESATVVDFLRRWIAFCQSIISTSPQ
modifications: biotinylated
notes: Biotinylated Mouse IL-2 Protein, purchased from Kactus Biosystems
pSTAT5 expression (CD4+ T cell) [1]: 5.3%
pSTAT5 expression (CD8a+ cell) [1]: 12.5%
pSTAT5 expression (NK1.1+ cell) [1]: 70.7%
phosphorylated expression of STAT5 after stimulation (in words) (splenocytes of +/+ and four-gene humanized homozygous (H/H) mice, 10 μg/mL): phosphorylated expression of STAT5 was detected
pSTAT5 expression (CD4+ T cell) (wild-type C57BL/6 mice (+/+)): 16.6%
pSTAT5 expression (CD8a+ cell) (wild-type C57BL/6 mice (+/+)): 89.9%
pSTAT5 expression (NK1.1+ cell) (wild-type C57BL/6 mice (+/+)): 41.6%
